Results reported in PMC12079263.

Target: Rab11 (1–173, Q70L) with 6 × His, bound to GTP-γ-S (UniProt P62491)
Test: SPR

p14^1–69 protein (p14 FAST protein of reptilian reovirus, residues 1-69) reconstituted into bicelles (domain or fragment)
Kd: 2130 nM
